Source: patent publication US7947279B2, “Peptide having hydrolase activity” (The Trustees of Columbia University in the City of New York, priority 2005, dated 2011)
Entries after “also recorded” stand apart in the source; their conditions may differ.

B1: TAT-HA-Uch-L1(S18Y): mutant TAT-HA-Uch-L1 construct, S18Y (ligase site), made by site-directed mutagenesis (protein, UniProt P09936 1-220, looked up, variant S18Y)
Ubiquitin carboxyl-terminal …: MQLKPMEINPEMLNKVLYRLGVAGQWRFVDVLGLEEESLGSVPAPACALLLLFPLTAQHENFRKKQIEELKGQEVSPKVYFMKQTIGNSCGTIGLIHAVANNQDKLGFEDGSVLKQFLSETEKMSPEDRAKCFEKNEAIQAAHDAVAQEGQCRVDDKVNFHFILFNNVDGHLYELDGRMPFPVNHGASSEDTLLKDAAKVCREFTEREQGEVRFSAVALC
modifications: fused to HIV TAT transduction peptide and HA tag
notes: mutant TAT-HA-Uch-L1 construct, S18Y (ligase site), made by site-directed mutagenesis

Key:
[1] = system: CA1-LTP in hippocampal slices; assay: CA1-LTP in hippocampal slices (theta-burst); format: cell-based, mouse; conditions: for rescue of LTP at different concentrations, S18Y versus TAT-HA-Uch-L1 (words): 1 hr pre-treatment, then Aβ 200 nM 20 min, as low as 5 nM; for Aβ-induced impairment of CA1-LTP (words): fusion protein 20 nM 1 hr, then plus Aβ 200 nM 20 min
phospho-CREB at Ser-133 = assay: Phospho-CREB (Ser-133) Western blot in hippocampal cultures; format: cell-based, rat; conditions: fusion protein 100 nM, 3 μM Aβ 24 hrs, 50 μM glutamate 15 min
Method: Western Blotting: Protein levels were assessed using standard procedures. Protein extraction was performed using buffer with and without detergent. For the extraction of protein using detergent, hippocampal tissues and cultured hippocampal neurons (5 DIV) were homogenized in RIPA buffer (50 mM Tris-HCl pH 7.4, 1% Triton X-100, 1% sodium deoxycholate, 0.1% SDS, 150 mM sodium chloride, 10 mM sodium fluoride, 30 mM sodium pyrophosphate, 50 mM sodium orthovanadate) containing 1× complete protease inhibitor (Roche) and 1 mM phenylmethylsulfonyl fluoride (PMSF). For extraction of proteins without detergent, hippocampal extracts were homogenized with disposable dounce homogenizers in buffer A, containing 10 mM HEPES pH 7.3, 300 mM sucrose, protease 1× complete protease inhibitor (Roche) and PMSF. After centrifugation at 10,000×g supernatant proteins were resolved on a 8% or 4-20% gradient Tris-Glycine gel, transferred onto PVDF or nitrocellulose membrane and blocked in 5% skim milk in PBS-Tween 0.1% (PBS-T). Membranes were probed with primary antibodies, and after washing with PBS-T incubated with an appropriate HRP-conjugated secondary antibody. The following antibodies were used: mouse monoclonal anti-ubiquitin (Chemicon), rabbit polyclonal anti-pCREB (Upstate Biotech.), rabbit polyclonal anti-PKA-RIIα (Santa Cruz Biotech. Inc), mouse monoclonal anti-Uch-L1 (Novocastra), monoclonal mouse anti-HA (Santa Cruz Biotech. Inc), and anti-PKA IIα. Detection was performed using HRP-conjugated secondary antibodies (Pierce, Rockford, Ill.). To control loading and transfer, protein immunoreactivities were normalized against total extracellular signal-regulated protein kinases (ERK1/2) levels with a rabbit analyzed using a rabbit polyclonal anti-ERK1/2 antibody (Cell Signaling Technology, Inc). NIH IMAGE was used to analyze the scanned blots and quantify the intensity of the protein signals.
Preparation of Cell Cultures. Hippocampal cell cultures were prepared as previously described (Vitolo et al., 2002). In cell culture experiments fetuses at embryonic day 18 from timed pregnant Sprague-Dawley rats (Taconic Farms) were used. Fetuses were sacrificed and the hippocampi removed. Neurons were then dissociated, plated on 6 well-plates coated with poly-L-lysine and maintained in a defined serum-free medium containing minimum essential medium supplemented with N-2, glucose, albumin, pyruvic acid, antibiotics and antimycotics. […] 5 DIV cells were used for the experiments.

Row | Molecule | reversal of LTP reduction by Uch-L1 fusion protein ([1]; KT5720 1 μM, Uch-L1 fusion protein 20 nM, Aβ 200 nM) | effect of Aβ on glutamate-induced CREB phosphorylation (words) (phospho-CREB at Ser-133) | effect of Aβ on glutamate-induced CREB phosphorylation (words) (phospho-CREB at Ser-133; listed as TAT-HA-Uch-L1 (S18Y)) | rescue of LTP at different concentrations, S18Y versus TAT-HA-Uch-L1 (words) [1] | rescue of LTP at different concentrations, S18Y versus TAT-HA-Uch-L1 (words) ([1]; listed as TAT-HA-Uch-L1 (S18Y)) | Aβ-induced impairment of CA1-LTP (words) [1] | Aβ-induced impairment of CA1-LTP (words) ([1]; listed as TAT-HA-Uch-L1 (S18Y)) | LTP in slices not treated with Aβ (words) ([1]; fusion protein 20 nM, 1 hr, WT slices, 3 theta-burst trains) | baseline transmission in slices without tetanic stimulation ([1]; non-tetanized slices)
1 | CCCCCCOC(=O)[C@]1(O)C[C@@H]2O[C@@]1(C)n1c3ccccc3c3c4c(c5c6ccccc6n2c5c31)C(=O)NC4 [KT5720, reference compound] | blocked | – | – | – | – | – | – | – | –
2 | B1 | – | totally blocked the effect of Aβ on CREB phosphorylation; also recorded: completely opposed | completely opposed | no difference between the two forms | No difference was detected | protected; also recorded: completely reversed | significantly enhanced the amplitude of LTP | did not affect the amounts of potentiation | Neither TAT-HA-Uch-L1(C90S) nor TAT-HA-Uch-L1(S18Y) affected baseline; also recorded: nor affected basal transmission
